Test results: the supplement of paper PMC10724198
± gives the standard deviation of the averaged measurements.

tested on: Saccharomyces cerevisiae; experiment: protein stability index of tFT-peptide fusion (C-terminal peptide) (PSI (0-1 scale)); higher = more stable (slower turnover); conditions: genetic background: wild type; temperature: 30 C
Experimental: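 Multiplexed protein stability (MPS) profiling in S. cerevisiae. Random 12-aa peptides (tFT-X12 library) are fused to the C-terminus of a sfGFP-mCherry tandem fluorescent timer, after mCherry and a GGGS linker. Cells are FACS-sorted into 8 mCherry/sfGFP bins and deep-sequenced. The protein stability index (PSI) is the read-weighted bin average, scaled from 0 (unstable) to 1 (stable). Only peptides with >10 reads are reported; cells were grown at 30 °C in SC-His with glucose.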
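Also: PSI is a weighted mean of sequencing reads over stability bins, variants kept only with over 10 reads, mCherry proximal and sfGFP distal, peptide attached via GGGS linker.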

| Sequence | protein stability index |
| --- | --- |
| WFPRLGKRSRGS | 0.69 ± 0.025 |
| SIYNKNKKIKQK | 0.688 ± 0.07 |
| PPTSLRFRPPYC | 0.682 ± 0.046 |
| STPLLLSPPLFC | 0.649 ± 0.04 |
| WAASGGAARYAP | 0.684 ± 0.037 |
| EGKKKKKGNRPK | 0.676 ± 0.081 |
| PPVSPPLPPPPH | 0.704 ± 0.03 |
| LQSLRSEVIHSL | 0.651 ± 0.095 |
| TKLRHHKTQIVD | 0.652 ± 0.059 |
| PLFSPPFLPFSL | 0.711 ± 0.028 |
| TTSSRDYIELLL | 0.729 ± 0.016 |
| MGGGGGLGGGDG | 0.613 ± 0.072 |
| PRHPRLPAPPAP | 0.666 ± 0.034 |
| ERGEEESGRSGS | 0.7225 ± 0.0046 |
| ERERQREKEKLK | 0.6735 ± 0.0038 |
| PTRTSHLCLIPP | 0.67 ± 0.075 |
| ASPAWYARGISR | 0.733 ± 0.033 |
| VVVGGVWIRRVW | 0.654 ± 0.052 |
| ANSRVVSFRLSG | 0.693 ± 0.047 |
| WSWTNDAFFGVV | 0.681 ± 0.068 |
| VGAGGSLPLNKV | 0.6928 ± 0.0062 |
| KKKKNKQKQIET | 0.759 ± 0.07 |
| EEGGVWIRVEAG | 0.588 ± 0.019 |
| KKGKKRNKTAKQ | 0.628 ± 0.062 |
| EDYERETRKICK | 0.717 ± 0.038 |

| Sequence | protein stability index |
| --- | --- |
| GLGGRGRRASEW | 0.664 ± 0.071 |
| FAAKASVLRMRR | 0.605 ± 0.029 |
| RCVGVTNESTGT | 0.661 ± 0.013 |
| PPPPLRPHHLTS | 0.696 ± 0.021 |
| GGFARGRDGWQL | 0.712 ± 0.0013 |
| GLWQRVGIVIGC | 0.58 ± 0.017 |
| KKKPKKQRKNKR | 0.684 ± 0.013 |
| KVSATIISFENI | 0.709 ± 0.1 |
| FHRESAEPSLWS | 0.697 ± 0.11 |
| LSPLPRLQPASP | 0.655 ± 0.071 |
| LAPPPARLPLSP | 0.687 ± 0.009 |
| PPPPPLPALPHL | 0.627 ± 0.023 |
| SLILRKDKKKKK | 0.69 ± 0.01 |
| EQKVRSPIEMML | 0.591 ± 0.0064 |
| MFVRRTDRGGIV | 0.7312 ± 0.0069 |
| KTKEKTKKEIQM | 0.629 ± 0.0042 |
| FPASPQPPPPLP | 0.627 ± 0.024 |
| SATPFSTEVCPL | 0.631 ± 0.028 |
| PPLPPLPLPNPP | 0.676 ± 0.064 |
| SAPILPPQSSSP | 0.749 ± 0.035 |
| CVPPSFRPSLFD | 0.75 ± 0.015 |
| ISLRAPVRPECV | 0.709 ± 0.031 |
| HTEVDIVKRDRR | 0.6896 ± 0.00098 |
| SMGSGCTPSMVS | 0.654 ± 0.11 |
| VFGRHSNRSPLY | 0.808 ± 0.07 |

| Sequence | protein stability index |
| --- | --- |
| RLRFIGDCKSST | 0.637 ± 0.031 |
| SSLSPLLYRPLF | 0.742 ± 0.047 |
| VVCVGSEVGEGG | 0.7243 ± 0.0045 |
| LSPCSDFSTFDA | 0.771 ± 0.12 |
| PSLPPHPPSPLP | 0.742 ± 0.053 |
| LLINTARWSEAG | 0.662 ± 0.049 |
| RNTKGTIKKKKE | 0.715 ± 0.074 |
| RPRTLLARSTHP | 0.717 ± 0.013 |
| FVRGGWAVMLGG | 0.58 ± 0.049 |
| WGGFLVDFGFQG | 0.757 ± 0.046 |
| HRPPSVNRVSLM | 0.692 ± 0.012 |
| FSLPSRAPLPRF | 0.735 ± 0.13 |
| AQDSFGFPPPPS | 0.726 ± 0.018 |
| PTRPPNEPTVHP | 0.659 ± 0.066 |
| QSLPLSAPAPAC | 0.697 ± 0.037 |
| PLHSTPRPPAPG | 0.706 ± 0.098 |
| RIINRATIIIKL | 0.564 ± 0.0065 |
| SPARLPPLPSLS | 0.734 ± 0.038 |
| SLPRLRSCPSSF | 0.774 ± 0.18 |
| YSDNIHIEFEDC | 0.737 ± 0.068 |
| SCTDIGWIMRDI | 0.673 ± 0.061 |
| LCLFRSCVHSSA | 0.616 ± 0.049 |
| ITALYVILTRRP | 0.6007 ± 0.0033 |
| LRCLFAWVCECG | 0.635 ± 0.083 |
| PRPPHPPPASPP | 0.58 ± 0.031 |

| Sequence | protein stability index |
| --- | --- |
| TKKKPGEPGKRK | 0.666 ± 0.013 |
| SRKNGLQRKQKT | 0.7277 ± 0.0055 |
| SPNSCSVDYFAT | 0.61 ± 0.055 |
| CAVPAVIDLDKF | 0.65 ± 0.087 |
| GVIKLTQEKAST | 0.679 ± 0.017 |
| AVCVSVCGRLLV | 0.5492 ± 0.0023 |
| LCVGAGCAFEEG | 0.675 ± 0.025 |
| WGGLGWVWVKLG | 0.685 ± 0.072 |
| IREFNLGTQIRY | 0.711 ± 0.035 |
| FVGGNEGSYWAS | 0.751 ± 0.035 |
| VWLLSNGFLAVD | 0.706 ± 0.049 |
| SLPPPPAPPPAI | 0.706 ± 0.086 |
| TLCITHARCFVK | 0.63 ± 0.0069 |
| HKEHLDNPRLRP | 0.714 ± 0.012 |
| GLMAIKVNLNHS | 0.619 ± 0.032 |
| WGGLGRVWVKLG | 0.706 ± 0.038 |
| GGGLGWVWVKLG | 0.735 ± 0.073 |
| QCCPPEQLSNCS | 0.681 ± 0.011 |
| PPLPPLRPIRSP | 0.702 ± 0.035 |
| HCSYSSSRPSPR | 0.543 ± 0.043 |
| FFPSPHVPPPPP | 0.617 ± 0.018 |
| SSVVPITLPAFL | 0.707 ± 0.019 |
| AEERATKNGARQ | 0.67 ± 0.055 |
